Like-named read-outs stand apart in the source and are kept apart here.

The test system of data set [1] is ADH T. As to the kind of experiment: Relative activities of purified ADH T in the reduction of different substrates. The format is biochemical, Thermoanaerobacter species.
The nature of data set [2]: Activity of the isolated ADH T at different pH values. The format is biochemical. Here is the method: The activities were determined by photometric measurement of the decrease in the cofactor. […] The measurement batch for ADH-TE also contained 1 mM of MgCl2.
(§1) The decrease in NADPH was followed at 340 nm for one minute after addition of the enzyme. Sufficient enzyme was added for the activity to be between 0.5 and 1.5 U/ml and the measurement volume was 1 ml.
(§2) 1 U corresponds to the quantity of enzyme which converts 1 μmol of substrate per minute.

Data set [3] is described as follows: Activity with diketone 2,4-pentanedione (photometric NADPH decrease). The format is biochemical. Here is the method: (§3) The comparison of the activity of the ADH T with that of the secondary alcohol dehydrogenase from Thermoanaerobacter ethanolicus 39E (U.S. Pat. No. 5,908,924) with regard to the conversion of diketones is interesting (Table 6).
(§4) The activities were determined by photometric measurement of the decrease in the cofactor. Measurement batch: 50 mM Tris-Cl, pH 7.0 with 10 mM substrate and 0.2 mM NADPH. The measurement batch for ADH-TE also contained 1 mM of MgCl2.
as §1, §2

Data set [4] is described as follows: Storage stability of the isolated ADH T (residual activity). It is filed as physicochemical. The conditions noted are these: for Activity Day 5 / Activity Day 10 / Activity Day 20 / Activity Day 40 / Activity Start: storage at 4° C. As to the method:
In spite of its thermal stability, the isolated ADH T cannot be stored for long under standard conditions (50 mM Tris-Cl, pH 7.0). The half-life is only ca. 4 days. By addition of e.g. NaCl, the half-life can be increased to more than 40 days (Table 2).
as §4, §1, §2

Data set [5] is described as follows: Activity with standard substrate acetone (photometric NADPH decrease). It is filed as biochemical. To be noted: acetone (10 mM); ADH T 1.5 mg/ml, ADH-TE 2.45 mg/ml; ADH-TE batch also 1 mM MgCl2. Here is the method:
as §3, §4, §1, §2

A short description of data set [6]: Conversion of 2-pentanone with substrate-coupled cofactor regeneration (isopropanol). It is filed as biochemical. The conditions noted are these: 200 mM 2-pentanone, 3 U/ml ADH T, 0.05 mM NADP. The text has this:
In fact, it can be shown that the enantioselectivity in the reduction of critical ketones such as 2-pentanone or 2-butanone by substrate-coupled cofactor regeneration with isopropanol is also far better than with the use of enzyme-coupled cofactor regeneration.
Also, the achievable enantiomeric purity of the product depends on the quantity of isopropanol used (Table 9).

The nature of data set [7]: Thermal stability of ADH T. It is filed as physicochemical. The conditions noted are these: after 12 hrs at 50° C. As to the method: The thermal stability is also very good. The activity of the ADH T was still at 75% of the starting value even after 12 hrs at 50° C.
A short description of data set [8]: Activity with diketone 2,5-hexanedione (photometric NADPH decrease). The format is biochemical. As to the method: as §3, §4, §1, §2
Data set [9] in a line: Reduction of 2,5-hexanedione to the diol, conversion and ee/de. The format is biochemical. To be noted: after 48 hrs. The text has this:
The ee/de value of 100% signifies absolute enantiomeric and diastereomeric purity of the diols prepared. By means of the invention described here, the ADH T can for the first time be obtained in sufficient quantity to produce enantiomerically pure diols on the kilogram scale.

Setting [10] is: substrate 10 mM, activity with acetone set at 100%, purified ADH T.
Setting [11] is: substrate 10 mM, activity with acetone set at 100%, […].
[12] abbreviates: relative to standard substrate acetone (10 mM).

For `O=C1CCCCC1=O` [1,2-cyclohexanedione], in data set [1] (setting [10]), the Relative activity worked out at 5%.

In the case of `CC(=O)CC(C)=O` [2,4-pentanedione], in data set [1] (setting [10]), the Relative activity is 77%.

In the case of `CC(=O)CCC(C)=O` [2,5-hexanedione], the Relative activity in data set [1] (setting [10]) came to 74%.

Regarding `CC(=O)c1ccccn1` [2-acetylpyridine], the Relative activity in [1] (setting [10]) was 36%.

Turning to `CCC(C)=O` [2-butanone], in [1] (setting [11]), the Relative activity is 72%.

As for `CCCCC(C)=O` [2-hexanone], in data set [1] (setting [11]), the Relative activity is reported as 30%.

Consider `CCC(C)C=O` (stereo not shown) [2-methylbutyraldehyde], for which the Relative activity in [1] (setting [10]) is recorded as 52%.

Turning to `CCCCCCC(C)=O` [2-octanone], the Relative activity in [1] (setting [10]) worked out at 9%.

On to `CCC(=O)C(=O)O` [2-oxobutyric acid], for which the Relative activity in [1] (setting [10]) was 28%.

In the case of `CCCC(C)=O` [2-pentanone], the Relative activity in [1] (setting [10]) came out at 31%.

For the molecule `C#CC(C)=O` [3-butyn-2-one], the Relative activity in [1] (setting [11]) was determined as 76%.

For `CCCCCC(=O)CC` [3-octanone], in [1] (setting [10]), the Relative activity worked out at 26%.

For the molecule `CC(=O)CCCl` [4-chloro-2-butanone], the Relative activity in data set [1] (setting [11]) came to 66%.

`CC(=O)CCO` [4-hydroxy-2-butanone]: in [1] (setting [11]), the Relative activity is 13%.

`CC=O` [Acetaldehyde]: in data set [1] (setting [11]), the Relative activity is 101%.

Consider `CC(C)=O` [Acetone], for which the Relative activity in data set [1] (setting [11]) is 100%.

`CC(=O)c1ccccc1` [Acetophenone]: the Relative activity in data set [1] (setting [10]) is 28%.

`CC(=O)C(C)=O` [Diacetyl]: the Relative activity in data set [1] (setting [10]) is 154%.

On to `CCOC(=O)CC(=O)CCl` [Ethyl 4-chloroacetoacetate], for which, in [1] (setting [11]), the Relative activity was found to be 45%.

`CCOC(=O)CC(C)=O` [Ethyl acetoacetate]: the Relative activity in data set [1] (setting [10]) came out at 22%.

Regarding `O=C(CCl)c1ccccc1` [Phenacyl chloride], the Relative activity in [1] (setting [11]) stood at 25%.

Regarding `CC(=O)c1ccc(Cl)cc1` [p-chloroacetophenone], in [1] (setting [11]), the Relative activity stood at 17%.

In the case of Monochloroacetone, in data set [1], the Relative activity amounted to 71%.

B1: ADH T: thermally stable, (S)-selective NADP-dependent alcohol dehydrogenase from Thermoanaerobacter species (SEQ ID NO: 2), recombinant (protein)
chain: MKGFAMLSIGKVGWIEVEKPNPGPFDAIVRPLAVAPCSSDIHTVFEGGLGELHNAVLGHEAVGEVVEVGSEVKDFKPGDKVVIPAITPDWRTLDVQRGYHQQSGGMLAGYKFTAQKPGVFAEYIYVNDADMNLAHLPDGISLEAAVMITDMMTTGFHGAELAEIELGATVAVLGIGPVGLMAVAGAKLRGAGRIIAVGSRPVCVDAAKYYGATDIVNYKNGPIDSQIMDLTKGKGVDAAIIAGGNVDIMATAVKIVKPGGTIANVNYFGEGDVLPVPRLEWGCGMAHKAIKGGLCPGGRLRMERLIDLVFYKRVDPSKLVTHVFQGFDNIEKALMLMKDKPKDLIKPVVILA
modifications: Thermoanaerobacter species
On to B1, for which the pH optimum in data set [2] is on record as 7.0. The Measured activity is recorded as 53 U/ml in data set [2] (pH 5.0); 134 U/ml in data set [2] (pH 6.0); 192 U/ml in data set [2] (pH 7.0); 146 U/ml in data set [2] (pH 8.0); 13 U/ml in [2] (pH 9.0). In addition, the results for the Relative activity in data set [2] (pH 6.5), in data set [2] (pH 7.0) and in data set [2] (pH 7.5) were 66%, 100% and 74%, respectively. Moreover, the spec. activity in data set [3] is on record as 55.4 U/mg; in data set [8] it was 52.7 U/mg. The rel. activity is 77% in data set [3] (setting [12]) and 74% in [8] (setting [12]). For the same molecule, the “Activity Day 5” value is 24 U/ml in [4] (0.0 M NaCl), 101 U/ml in data set [4] (0.2 M NaCl), 113 U/ml in [4] (0.5 M NaCl) and 115 U/ml in data set [4] (1.0 M NaCl). Further, the “Activity Day 10” value came to 6 U/ml in [4] (0.0 M NaCl), 7 U/ml in data set [4] (0.2 M NaCl), 86 U/ml in [4] (0.5 M NaCl) and 119 U/ml in [4] (1.0 M NaCl). Also, the “Activity Day 20” value in data set [4] (0.0 M NaCl), in data set [4] (0.2 M NaCl) and in data set [4] (0.5 M NaCl) was 0 U/ml each time. The “Activity Day 40” value worked out at 0 U/ml in data set [4] (0.0 M NaCl), 0 U/ml in [4] (0.2 M NaCl), 0 U/ml in [4] (0.5 M NaCl) and 78 U/ml in data set [4] (1.0 M NaCl). Moreover, the “Activity Start” value in [4] (0.0 M NaCl), in [4] (0.2 M NaCl), in [4] (0.5 M NaCl) and in data set [4] (1.0 M NaCl) was 105 U/ml each time. In addition, the “duration of high stability on storage” value in [4] (storage at −20° C. with addition of glycerine, in particular 50%) was “at least 3 months”. The “effect of addition of zinc ions to the prepared enzyme” value in data set [4] (zinc ions added to prepared enzyme) is on record as “leads rapidly to its inactivation”. The “activity with standard substrate” value in data set [5] came out at 106 U/ml. For the same molecule, the Conversion in [6] (100 mM Tris-Cl pH 7.0, 20% isopropanol, 24 hours) was 85.3%; in data set [6] (100 mM Tris-Cl pH 7.0, 20% isopropanol, 48 hours), 86.5%; in data set [6] (100 mM Tris-Cl pH 7.0, 50% isopropanol, 24 hours) it was 93.8%; in data set [6] (100 mM Tris-Cl pH 7.0, 50% isopropanol, 48 hours) it was 94.2%. Moreover, the “activity remaining, of the starting value” in data set [7] was determined as 75%. For the same molecule, the results for the Conversion to diol in data set [9] (enzyme-coupled) and in data set [9] (substrate-coupled) were 82.4% and 10.6%, respectively. The “ee/de for the (S,S) enantiomer” value in [9] (enzyme-coupled) and in data set [9] (substrate-coupled) was 100% throughout.

For the origin of these results see patent publication US7943356B2, “Alcohol dehydrogenase for the stereoselective production of hydroxy compounds” (Codexis, Inc., priority 2004, dated 2011).
